Source: article PMC2174359 (The Journal of Cell Biology, 2000)

Target: Sec13/31p complex (S. cerevisiae, UniProt Q04491 1-297; P38968 1-1273)
Test: co-sedimentation

Chain of Sec13/31p complex (Q04491 whole entry, chain 1 of 2): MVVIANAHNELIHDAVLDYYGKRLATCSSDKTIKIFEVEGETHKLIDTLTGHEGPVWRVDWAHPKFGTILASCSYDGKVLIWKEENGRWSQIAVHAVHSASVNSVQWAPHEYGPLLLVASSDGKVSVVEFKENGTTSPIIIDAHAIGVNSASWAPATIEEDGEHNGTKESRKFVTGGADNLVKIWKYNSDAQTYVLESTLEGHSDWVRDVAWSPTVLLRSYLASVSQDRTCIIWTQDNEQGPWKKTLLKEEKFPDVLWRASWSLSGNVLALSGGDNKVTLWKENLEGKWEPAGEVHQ
Chain of Sec13/31p complex (P38968 whole entry, chain 2 of 2): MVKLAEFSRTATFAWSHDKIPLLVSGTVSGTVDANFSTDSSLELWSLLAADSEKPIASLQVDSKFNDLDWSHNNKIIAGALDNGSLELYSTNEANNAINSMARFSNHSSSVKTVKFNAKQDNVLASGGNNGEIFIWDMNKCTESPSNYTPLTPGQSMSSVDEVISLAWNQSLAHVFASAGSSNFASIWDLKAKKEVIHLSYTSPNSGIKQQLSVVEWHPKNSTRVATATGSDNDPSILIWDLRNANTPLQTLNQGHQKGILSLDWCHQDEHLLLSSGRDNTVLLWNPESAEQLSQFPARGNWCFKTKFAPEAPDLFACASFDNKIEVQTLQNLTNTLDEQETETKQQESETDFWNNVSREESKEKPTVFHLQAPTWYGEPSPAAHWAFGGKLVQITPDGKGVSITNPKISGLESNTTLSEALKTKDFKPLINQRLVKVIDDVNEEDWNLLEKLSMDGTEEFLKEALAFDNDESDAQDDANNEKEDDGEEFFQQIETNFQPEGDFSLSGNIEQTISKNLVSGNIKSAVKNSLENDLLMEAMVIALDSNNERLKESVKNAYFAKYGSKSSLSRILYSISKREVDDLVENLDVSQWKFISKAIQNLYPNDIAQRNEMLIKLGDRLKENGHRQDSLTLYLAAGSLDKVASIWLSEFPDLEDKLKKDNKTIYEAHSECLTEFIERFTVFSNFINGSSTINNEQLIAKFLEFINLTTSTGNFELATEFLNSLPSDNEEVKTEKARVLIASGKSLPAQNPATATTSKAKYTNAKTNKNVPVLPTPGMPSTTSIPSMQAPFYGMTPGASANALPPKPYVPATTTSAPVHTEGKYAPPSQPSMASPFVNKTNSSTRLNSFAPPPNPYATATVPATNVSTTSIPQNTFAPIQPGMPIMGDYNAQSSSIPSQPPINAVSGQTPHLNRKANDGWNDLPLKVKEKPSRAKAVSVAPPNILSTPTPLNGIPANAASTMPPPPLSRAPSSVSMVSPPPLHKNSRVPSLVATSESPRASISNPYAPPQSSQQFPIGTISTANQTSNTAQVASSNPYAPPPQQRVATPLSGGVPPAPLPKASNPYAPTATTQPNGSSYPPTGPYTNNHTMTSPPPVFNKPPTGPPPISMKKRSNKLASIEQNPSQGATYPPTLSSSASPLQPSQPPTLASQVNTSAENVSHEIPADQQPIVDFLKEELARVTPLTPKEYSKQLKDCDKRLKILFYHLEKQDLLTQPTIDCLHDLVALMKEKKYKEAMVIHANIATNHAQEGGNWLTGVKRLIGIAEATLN

B1: Lst1p, His6-tagged (LST1-His6) (natural protein, S. cerevisiae, UniProt P38810 1-929, looked up)
chain: MSQQNILAASVSALSLDESTVHTGGASSKKSRRPHRAYHNFSSGTVPTLGNSPYTTPQLNQQDGFQQPQAFTPKQFGGFNNGSGSVMSTPVMVSQERFGASEASSPYGQSMLDMTAPQPTSHIVPTQRFEDQAQYLQRSFETCRDSVPPLPTTQFYCVDQGSCDPHLMSLSMYNIPESEHLRAATKLPLGLTIQPFSTLTPNDAEVPTIPLPMDGTPLRCRRCRAYANPKFQFTYDSSVICNICRVKMQVPGEHFAPMGPNGQRSDLNEKSELLHGTVDFLVPSIYNAIQEKELLPLHYVFLIDVSLLANENGSSLAMVEGVRSCIEYISDFQPNCEVAIIVYDNKLRFFNLRPDLDNAQEYIVSELDDVFLPFYNGLFVKPGNSMKIINDTLIKISGYISTDKYSHVPQVCYGSALQAAKLALDTVTGGQGGKIICSLNSLPTIGNGNLSLKRDNAHIAHVKCDNGFYKKLASDFLKSYISLDLYVTNAGFIDMATVGHPVEMTSGILKYYPHFQQETDAFTLVNDMVTNVSNIVGYQALLKVRCSTGLSVEQYYCDSSDNTDHDPIIPVLTRDTTLDVLLKYDSKIKTGTDVHFQTALLYTDIDGVRKVRSINTSGAVSNNIREIFKFINQNPVMRIMIKDVIKTLGDCDFVKIRRLIDDKMVEILTQYRGLVSSNSSTQLILPDSIKTLPAYMLAFEKSELMKPNAQSTRGNERIYDLLKYDSLNSAQLCYKLYPQIVPFHVLLEETDLTFYDANDKLLQINSSSINNLSVRASHSNFINGGCYLIFQGDTIYLWFNENTNRMLLQDLLSVDESLPVSQISLFSGTLPETGTSINQKASNVIKNWQQVVNKSSLPLVLLRPNVDQYYSNVMSQLLCEDKTVNRIESYDNYLVIMHKKIQEKLQKDDFIKVSTAATHENIHQKFVQF
  binding result: binds
